This note sets out measurements from paper doi:10.1101/2025.11.11.687647 (bioRxiv, 2025).

This data set concerns the molecule itself. Nature of the data set: cryo-EM structure.

B1: CT–PT–BCCP fragment of MtPC (degradation product) (domain or fragment)
chain: ADRGTKILNFLADVTVNNPYGSRPSTIYPDDKLPDLDLRAAPPAGSKQRLVKLGPEGFARWLRESAAVGVTDTTFRDAHQSLLATRVRTSGLSRVAPYLARTMPQLLSVECWGGATYDVALRFLKEDPWERLATLRAAMPNICLQMLLRGRNTVGYTPYPEIVTSAFVQEATATGIDIFRIFDALNNIESMRPAIDAVRETGSAIAEVAMCYTGDLTDPGEQLYTLDYYLKLAEQIVDAGAHVLAIKDMAGLLRPPAAQRLVSALRSRFDLPVHLHTHDTPGGQLASYVAAWHAGADAVDGAAAPLAGTTSQPALSSIVAAAAHTEYDTGLSLSAVCALEPYWEALRKVYAPFESGLPGPTGRVYHHEIPGGQLSNLRQQAIALGLGDRFEEIEEAYAGADRVLGRLVKVTPTSKVVGDLALALVGAGVSADEFASDPARFGIPESVLGFLRGELGDPPGGWPEPLRTAALAGRGAARPTAQLAADDEIALSSVGAKRQATLNRLLFPSPTKEFNEHREAYGDTSQLSANQFFYGLRQGEEHRVKLERGVELLIGLEAISEPDERGMRTVMCILNGQLRPVLVRDRSIASAVPAAEKADRGNPGHIAAPFAGVVTVGVCVGERVGAGQTIATIEAMKMEAPITAPVAGTVERVAVSDTAQVEGGDLLVVVS
In the case of B1, the stoichiometry N (commonly a count of units in the complex or per binding partner) stood at 2.
